What was measured:
[1] = target: T1, human CD22-beta-ECD-His tagged soluble antigen (human, UniProt P20273 22-681); experiment: SPR (BIACORE 3000), antibody coupled to the chip, soluble CD22-beta-ECD-His injected, 25 C
T1 construct: also called soluble CD22 extracellular domain (ECD); Soluble Human CD22
T1 sequence: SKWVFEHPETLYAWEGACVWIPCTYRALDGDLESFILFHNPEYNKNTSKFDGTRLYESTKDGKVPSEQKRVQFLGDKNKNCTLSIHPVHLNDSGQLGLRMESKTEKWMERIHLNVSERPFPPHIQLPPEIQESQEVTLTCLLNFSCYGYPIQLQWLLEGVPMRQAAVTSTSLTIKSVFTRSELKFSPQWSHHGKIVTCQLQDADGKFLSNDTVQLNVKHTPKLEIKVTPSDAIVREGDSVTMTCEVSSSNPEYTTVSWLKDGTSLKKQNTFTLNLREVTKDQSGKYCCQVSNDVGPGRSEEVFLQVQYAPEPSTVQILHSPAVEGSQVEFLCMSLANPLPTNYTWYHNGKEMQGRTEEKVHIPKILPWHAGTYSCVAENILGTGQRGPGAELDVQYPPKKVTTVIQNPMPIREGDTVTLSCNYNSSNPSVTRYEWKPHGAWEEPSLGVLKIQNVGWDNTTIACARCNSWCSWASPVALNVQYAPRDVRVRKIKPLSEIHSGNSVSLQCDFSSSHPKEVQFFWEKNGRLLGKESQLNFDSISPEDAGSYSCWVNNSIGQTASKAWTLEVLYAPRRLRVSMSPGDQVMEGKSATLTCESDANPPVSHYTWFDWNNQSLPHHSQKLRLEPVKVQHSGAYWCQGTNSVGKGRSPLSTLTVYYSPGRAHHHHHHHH
Experimental: The binding affinity of murine and humanized 10F4 antibody for soluble CD22 extracellular domain (ECD) was determined by surface plasmon resonance measurement using a BIACORE® 3000 system (Biacore, Inc., Piscataway, N.J.). Briefly, carboxymethylated dextran biosensor chips (CMS, Biacore Inc.) were activated with N-ethyl-N′-(3-dimethylaminopropyl)-carbodiimide hydrochloride (EDC) and N-hydroxysuccinimide (NHS) according to the supplier's instructions. These activated chips were coated with anti-CD22 IgG1 antibody 10F4 (murine or humanized) by dilution to 5 μg/ml with 10 mM sodium acetate, pH 4.8, before injection at a flow rate of […] to achieve approximately 500 response units (RU) of coupled antibody. Next, 1M ethanolamine was injected to block unreacted groups. […] Association rates (kₒₙ) and dissociation rates (koff) were calculated using a simple one-to-one Langmuir binding model (BIAevaluation Software version 3.2). The equilibrium dissociation constant (Kd) was calculated as the ratio koff/kₒₙ. Anti-CD22 antibody, RFB4, was used as a control (Chemicon International, Inc., Temecula, Calif., catalog no. CBL147).

[2] = target: T2, CD22 variant lacking domain 2 (Δ2), expressed on CHO cells (human, UniProt P20273 22-847); experiment: flow cytometry on CHO cells expressing the CD22 deletion variant; goat anti-mouse IgG Alexa 488
T2 construct: Membrane protein on stably transformed CHO cells; Numbering of full length precursor CD22beta (Wilson et al. 1991); also called CD22 lacking domain 2
T2 chain: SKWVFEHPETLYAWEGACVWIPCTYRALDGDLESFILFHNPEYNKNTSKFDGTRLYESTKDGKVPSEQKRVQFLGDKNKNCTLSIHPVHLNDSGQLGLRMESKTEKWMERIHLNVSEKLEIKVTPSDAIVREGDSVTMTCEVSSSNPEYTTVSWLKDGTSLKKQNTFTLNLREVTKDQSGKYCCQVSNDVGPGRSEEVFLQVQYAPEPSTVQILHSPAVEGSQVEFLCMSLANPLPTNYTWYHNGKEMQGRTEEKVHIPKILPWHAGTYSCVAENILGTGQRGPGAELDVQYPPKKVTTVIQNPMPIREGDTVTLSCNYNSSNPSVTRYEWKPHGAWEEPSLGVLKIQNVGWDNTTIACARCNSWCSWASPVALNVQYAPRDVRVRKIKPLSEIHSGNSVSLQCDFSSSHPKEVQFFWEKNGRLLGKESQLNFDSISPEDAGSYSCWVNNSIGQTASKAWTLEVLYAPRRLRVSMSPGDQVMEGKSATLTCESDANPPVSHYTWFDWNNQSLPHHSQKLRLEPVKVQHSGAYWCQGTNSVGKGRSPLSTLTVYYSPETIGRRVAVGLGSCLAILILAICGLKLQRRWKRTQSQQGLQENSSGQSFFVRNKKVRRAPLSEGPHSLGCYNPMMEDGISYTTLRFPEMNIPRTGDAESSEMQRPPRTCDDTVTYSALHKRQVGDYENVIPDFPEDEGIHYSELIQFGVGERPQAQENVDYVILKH
Experimental: CD22 sequences lacking various of the seven immunoglobulin-like domains of the major CD22 isoform (CD22beta) were cloned and transformed into cells for stable expression. For example, CD22 variants lacking domain 1 (Δ1), domain 2 (Δ2), or domains 3 and 4 (Δ3,4) were cloned, transformed into CHO cells, and expressed on the cells. Control cells expressed CD22beta. Deletions were performed using Stratagene QuikChange XL™ reagent kit. Deletion of domain 1 was performed by deletion of amino acids 22-138; deletion of domain 2 was performed by deletion of amino acids 139-242; and deleted domains 3 and 4 were available as the minor isoform CD22alpha (deletion of amino acids 241-417). All amino acid numbers refer to the numbering of full length precursor CD22beta by Wilson, G. L. et al. (see FIG. 1 in Wilson, G. L. et al., J. Exp. Med. 173:137-146 (1991)). FIG. 14 is a diagram of the deleted domains. Binding was determined by flow cytometry using an isotype control. […] Binding of 5E8.1.8 was detected using biotinylated goat anti-mouse IgG plus streptavidin PE.

Kd [1]: 15 nM
koff [1]: 0.00028 s⁻¹
kon [1]: 19000 M⁻¹ s⁻¹
binding result [2]: no binding
B1: murine anti-human CD22 10F4.4.1 monoclonal antibody (antibody, V domains shown)
VH: QVQLQQSGPELVKPGASVKISCKASGYEFSRSWMNWVKQRPGQGREWIGRIYPGDGDTNYSGKFKGKATLTADKSSSTAYMQLSSLTSVDSAVYFCARDGSSWDWYFDVWGAGTTVTVSS
VL: DILMTQTPLSLPVSLGDQASISCRSSQSIVHSNGNTFLEWYLQKPGQSPKLLIYKVSNRFSGVPDRFSGSGSGTDFTLKISRVEAEDLGVYYCFQGSQFPYTFGGGTKVEIK
notes: Murine hybridoma antibody (ATCC PTA-7621); also called mu 10F4; Mu 10F4.4.1

From patent US20130171170A1 (published 2013)
